{"source": "paper PMC5528842", "about": "“The mechanism of monomer transfer between two structurally distinct PrP oligomers” (PLoS ONE, 2017)", "key": {"[1]": {"biological_target": "the molecule itself", "experiment": "[…], sodium citrate 20 mM pH 4.0, […]"}, "[2]": {"biological_target": "the molecule itself", "experiment": "static light scattering + SEC"}}, "note": "“And” between values parts separate entries of the source, which are not always exact repeats. Equal entries are not always repeated.", "data": [{"protein": "Full-length Ovine PrP 23-234 (Ala-136, Arg-154, Gln-171 variant) (natural protein, also called OvPrP; ARQ PrP) not shown", "values": [{"measurement": "stoichiometry N", "setting": "[1]", "value": "25 to 70", "unit": "mer"}, {"measurement": "koff", "setting": "[2]", "value": "0.00403 s⁻¹ and 0.0038 s⁻¹ and 0.01 s⁻¹"}]}]}
